Test results: the nanobody polyreactivity screen of Harvey et al. (2022)

experiment: yeast display, Sf9 membrane polyspecificity reagent, FACS + sequencing; frameworks hold sequencing errors
In short: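 A synthetic nanobody library was expressed on Saccharomyces cerevisiae BJ5465 by galactose induction for 36–48 hours. The library was stained for 1 hour at 4 °C with 10% biotinylated, detergent-solubilized Sf9 membrane reagent and enriched with streptavidin microbeads before FACS. Low and high (top ~1%) gates were set on anti-HA fluorescence for expression and streptavidin fluorescence for reagent binding, and each polyreactivity label reflects the gate of origin.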

Row | Sequence | polyreactivity (PSR sort gate)
1 | QVQLVESGGGLVQAGGSLRLSCAASGLTFVDNAMGWYRQAPGKERELVAAISYNGGSTYYADSVKGRFTISRDNAKNTVYFQINSLKPEDTAVYYCAADISVGRYVDMDYWGQGTKVTVSS | low polyreactivity
2 | QVQLVESGGGLVQAGGSLRLSCAASGLTFVDYAMGWYRQAPGKERELVAAISWSGGSTYYADSVKGRFTISRDIAKNTVYLQMNSLKPEDTAVYYCAAETQGWYPWGFYWGQCTQVTVSS | low polyreactivity
3 | QVQLVESGGGLVQAGGSLRLSCAASGLTFVDYDMGWYRQAPGKERELVADINSGGYTYYADSVKGRFTISRDNAKNTVYLQMNSLKPEDTAVYYCAADDGWGYISSYDYEYWGQGTQVTVSS | high polyreactivity
4 | QVQLVESGGGLVQAGGSLRLSCAASGLTFVFYAMGWYRQAPGKERELVAAISRRGGRTYYADSVKGRYTISRDNAKNTVYVQMNSLKPEDTAVYYCNARVRSHRCNYWGQGTQVTVSS | high polyreactivity
5 | QVQLVESGGGLVQAGGSLRLSCAASGLTFVGNAMGWYRQAPGKERELVASITIGTSTYYADSVKGRFTISRDNAKNTVYLQMNRLKPEDTAVYYCAAEEVFQVYGLALIYDYWGQGTQVTVSS | high polyreactivity
6 | QVQLVESGGGLVQAGGSLRLSCAASGLTFVKNAMGLYRQAPRKERELVATISSGGSTNYADSVKGRFTISRDNAKNTVYLQMNSLKPEETAVYYCNKDYTGVLLWIWWDRYDYWGQGTQVTVSS | high polyreactivity
7 | QVQLVESGGGLVQAGGSLRLSCAASGLTFVKYAMGWYRPAPGKERELVAAISRSGGRTYYADSVKGRFTISRDNAKNTVYLQMNSLKPEDTAVYYCNADHVRGNHGYDYWGQGTQVTVSS | high polyreactivity
8 | QVQLVESGGGLVQAGGSLRLSCAASGLTFVPNAMGWSRQAPGKERELVAGITSAGSTYYADSVKGRFTISRDNAKNTVYLQMNSLKPEDSAVYYCAKQFYRGFRYGYWGQGTQVTVSS | high polyreactivity
9 | QVQLVESGGGLVQAGGSLRLSCAASGLTFVPNARGWYRQAPGKERELVAASSNNGGRTYYADSVKGRFTISRDNAKKTVYLQMNSLKPEDTAVYYCAKYLSPGERHSYDYWGQGTQVTVSS | high polyreactivity
10 | QVQLVESGGGLVQAGGSLRLSCAASGLTFVQNAMGWYRQAPGKERELVAAISSRGGSTYYADSVKGRFTISRDNAKNTVYLQMNSLKPEDTAVYYCNTRSITKYDYWRRGYGYWGQGTQVTVSS | high polyreactivity
11 | QVQLVESGGGLVQAGGSLRLSCAASGLTFVVYAMGWYRPAPGKERELVAASDFSGGDTYYADSVKGRFTISRDNAKNTVYLQRNSLKPEDTADYYCAAEYYGPSYYIGFDYWGQGTQVTVSS | high polyreactivity
12 | QVQLVESGGGLVQAGGSLRLSCAASGLTFVWYAMGWYRQAPGKERELVAAIRGGGSTYYADSVKGRFTISRDNAKNTVYLQMNSLKPEDTAVYYCAAPYARCLFYLLHYPRFSYDYWGQGTQVTVSS | high polyreactivity
13 | QVQLVESGGGLVQAGGSLRLSCAASGLTFVYYDMGWYRQAPGKERELVADITDGSSTNYADSVKGRFTISRDNAKNTVYLQMYSLKREDTAVYYCAVDAVFQGSLGDYEYDYWGQGTQVTVSS | low polyreactivity
14 | QVQLVESGGGLVQAGGSLRLSCAASGLTFWAYTMGWYRQAPGKERELVAAITSSGGRTYYADSVKGRFTISRDNAKNTVYLQMNSLKPEDTAVYYCAALGGRYRASTYGYWGQGTQVTVSS | high polyreactivity
15 | QVQLVESGGGLVQAGGSLRLSCAASGLTFWDNAMGWYRQAPGKERELVAAITRSGGSTHYADSVKGRFTISRDNAKNTVYLQMNSLKPEDTAVYYCAADYDFYDFSYQSWSEENYWGQGTQVTVSS | low polyreactivity
16 | QVQLVESGGGLVQAGGSLRLSCAASGLTFWEYAMGWYRQAPGQERELVAAITRGGNTYYADSVKGRFTISRDNAKNTVSLQMNSLKPEDTAVYYCAARGYYLTGGCRRYYYWGQGTQVTVSS | high polyreactivity
17 | QVQLVESGGGLVQAGGSLRLSCAASGLTFWFNAMGWYRPAPGKERALVGAIRNRGGSTYYADSVKGRFTISRDTAKNTVYLQMNSLKPEDTAVYYCAAVSWFLVGPRYYYWGQGTQVTVSS | high polyreactivity
18 | QVQLVESGGGLVQAGGSLRLSCAASGLTFWGYAMGWYRQAPGKEREFVASISSGGGSTYYADSVKGRFTISRDNAKNTVYLQMNSLKPEDTAVYYCNADRTQDRNPYTYATFDYWGQGTQVTVSS | low polyreactivity
19 | QVQLVESGGGLVQAGGSLRLSCAASGLTFWLNAMGWYRQAPGKERELVAAIRYSGVGTYADSVKGRFTISRDNAKNTVYLQMNSLKPEDTAVYYCAALYNLGYPQFDYWGQGTQVTVSS | low polyreactivity
20 | QVQLVESGGGLVQAGGSLRLSCAASGLTFWPNAMGWYRQAPGKERELVAAISYTGGITYYADSVKGRFTISRDNAKNTDYLQMNSLKPEDTAVYSCNKGRRGYYSVRRYDYWGQGTQVTVSS | low polyreactivity

Row | Sequence | polyreactivity (PSR sort gate)
21 | QVQLVESGGGLVQAGGSLRLSCAASGLTFWVYAMGWYRQAPGKERELVAAISGSGARTYYADSVKGRFTISRDNAKNTVYLQMNSLKPEDTAVYYCAARAVRATAKYEYWGQGTQVTVSS | high polyreactivity
22 | QVQLVESGGGLVQAGGSLRLSCAASGLTFWYNAMGWYRQAPGKERELVAAINSGGRTNYADSVKGRFTISRDNAKNTVYLQMNSLKPEDTAVYYCAAVRHWTVGWTYYYWGQGTQVTVSS | high polyreactivity
23 | QVQLVESGGGLVQAGGSLRLSCAASGLTFYDYAMGWYRQAPGKERELVAAISSGGSTYYADSVKGRFTISRDNAKNTVYLHMNSLKPEDTAVYYCAARPAYRVHAMGYWGQGTQVTVSS | low polyreactivity
24 | QVQLVESGGGLVQAGGSLRLSCAASGLTFYEYAMGWYTQAPGKERELVAAITASGGSTYYADSVKGRFTISRDNAKNTVYLQMNSLKPEDSAVYYCAAVDYVRYYPDEFDYWGQGTQVTVSS | low polyreactivity
25 | QVQLVESGGGLVQAGGSLRLSCAASGLTFYKNVMGWYRQAPGKERELVAAISSSGGSTYYADSVKGRFTISRDNAKNTVYLQMNSLKPDDTAVYYGAADDPLYTPYEFDYWGQGTQVTVSS | low polyreactivity
26 | QVQLVESGGGLVQAGGSLRLSCAASGLTFYLYDMGWYRQAPGKERELVAAISRRGTSTYYADSVKGRFTISRDNAKNTVYLQMNSLKPEDTAVYYCAADRKFGRDYWGQGTQVTVSS | high polyreactivity
27 | QVQLVESGGGLVQAGGSLRLSCAASGLTFYRNAMGWYRQAPGKERELVAAITSRGGSTYYADSVKGRFTISRDNAKNTVYLQMNSLKPEDTAVYYCAAYSTLITGRDYGYWGQGTQVTVSS | high polyreactivity
28 | QVQLVESGGGLVQAGGSLRLSCAASGLTFYRYAMGLYRQAPGKERELVAGITRRGGSTYYADSVKGRFTISRDNAKNTVYLQMNSLKPEDTSVYYCNVDGISSSYPELDYWGQGTQVTVSS | low polyreactivity
29 | QVQLVESGGGLVQAGGSLRLSCAASGLTFYRYAMGWYRQAPWKERDFVAAINRNGGSTYYADSVKGRFTISRDNAKNTVYLEMNSLKPEDTAVYYCNARVSGTRSGRVLRDYWGQGTQVTVSS | high polyreactivity
30 | QVQLVESGGGLVQAGGSLRLSCAASGLTFYSYAMGWSRQAPGKERELVAAISKSGGSTFYADSVKGRFTISRDNAKNTVYLQMNSLKPEDTAVYYCNARRRHEGSPPYGYWGQGTQVTVSS | high polyreactivity
31 | QVQLVESGGGLVQAGGSLRLSCAASGLTFYSYAMGWYRQAPGKERELVAAISKSGGSTYYADSVKGRFTISRDNAKNTVYLQMNSLKPEDTAVYYCNALTKTGTPPDYDYWGQGTQVTVSS | high polyreactivity
32 | QVQLVESGGGLVQAGGSLRLSCAASGLTFYTNAMGWYRQAPGKERELVAAITSSGGRTYYADSVKGRFTISRDNAKNTVYLQMNSLKPEDTAVYYCAADARRPSIPEMYYCGQGTQVTVSS | high polyreactivity
33 | QVQLVESGGGLVQAGGSLRLSCAASGLTFYVYGMGWYRQAPGKERELVASITSGGNTYYADSVKGRFTISRDNAKNTVYLQMNSLKPEDTAVYYCAVTAIALYYSSGYYWGQGTQVTVSS | low polyreactivity
34 | QVQLVESGGGLVQAGGSLRLSCAASGLTFYYNAMGWYRPAPGKERELVAAITWSTDSTYYADSVKGRFTISRDNAKNTVYLQMNSLKPEDTAVYYCAAAVDAFTNKQYYYWGQGTQVTVSS | low polyreactivity
35 | QVQLVESGGGLVQAGGSLRLSCAASGLTFYYYAKGWYRQAPGKERDFVAAISRSGGTTYYADSVKGRYTISRDNAKNTVYLQMNSLKPEDTAVYYCNAQWCRYWPSQVIFDYWGQGTQVTVSS | high polyreactivity
36 | QVQLVESGGGLVQAGGSLRLSCAASGLTFYYYAMGWYRQAPGKERELVAAISGTGGSAYYADSVKGRFTISRDNAKNTVYLQMNSLKPEDTAVYYCAARYLRYKGTGATSAYDYWGQGTQVTVSS | high polyreactivity
37 | QVQLVESGGGLVQAGGSLRLSCAASGLTFYYYAMGWYRQAPGKERELVAAISIGGSTDYADSAKGRFTISRDNAKNTVYLQMNRLKPEDTAVYYCNVDDNSEYDYWGQGTQVTVSS | low polyreactivity
38 | QVQLVESGGGLVQAGGSLRLSCAASGLTFYYYAMGWYRQAPGKERELVAAISYSGSRTYYADSVKGRFTISRDNAKNTVYLQMNSLKPEDTAVYYCAARLSDGGGYWGQGTQVTVSS | high polyreactivity
39 | QVQLVESGGGLVQAGGSLRLSCAASGLTFYYYAMGWYRQAPGKERELVASITKRGGSTYYADSVKGRFTISRDNAKNTVYLQMNSLKPEDTAVYYCAAQYRSQGQPKGGVLYYYWGQGTQVTVSS | high polyreactivity
40 | QVQLVESGGGLVQAGGSLRLSCAASGLTFYYYAMGWYRQSPGKEREFVAAISRSGGTTYYADSVKGRFTISRDNAKNTVYLQMNSLKPEDTAVYYCAKASRYWSLYYWGQGTQVTVSS | high polyreactivity
